To fix the notation:
B1: Peptide No. 121 (SEQ ID NO: 121) (peptide)
peptide: Ac-[Pen]NT[Trp(7-Me)]K(Ac)[Pen][AEF][2Nal][Thp]EN[3Pal][dNMeY]-NH2
modifications: disulfide 1-6
SMILES: CC(=O)NCCCC[C@@H]1NC(=O)[C@H](Cc2c[nH]c3c(C)cccc23)NC(=O)[C@H]([C@@H](C)O)NC(=O)[C@H](CC(N)=O)NC(=O)[C@@H](NC(C)=O)C(C)(C)SSC(C)(C)[C@@H](C(=O)N[C@@H](Cc2ccc(OCCN)cc2)C(=O)N[C@@H](Cc2ccc3ccccc3c2)C(=O)NC2(C(=O)N[C@@H](CCC(=O)O)C(=O)N[C@@H](CC(N)=O)C(=O)N[C@@H](Cc3cccnc3)C(=O)N(C)[C@H](Cc3ccc(O)cc3)C(N)=O)CCOCC2)NC1=O
B2: Peptide No. 8 (peptide)
peptide: RXQTWQCFXXENNY
modifications: Ac-[(D)Arg]-[Abu]-Q-T-W-Q-[Cys]-Phe[4-(2-aminoethoxy)]-[2-Nal]-[THP]-E-N-N-[(D)NMeTyr]-NH2; Abu-Cys thioether
B3: Peptide No. 117 (peptide)
peptide: Ac-[Pen]NT[Trp(7-Ph)]K(Ac)[Pen][AEF][2Nal][Thp]K(Ac)N[3Pal][Sar]-NH2
modifications: disulfide 1-6
SMILES: CC(=O)NCCCC[C@@H]1NC(=O)[C@H](Cc2c[nH]c3c(-c4ccccc4)cccc23)NC(=O)[C@H]([C@@H](C)O)NC(=O)[C@H](CC(N)=O)NC(=O)[C@@H](NC(C)=O)C(C)(C)SSC(C)(C)[C@@H](C(=O)N[C@@H](Cc2ccc(OCCN)cc2)C(=O)N[C@@H](Cc2ccc3ccccc3c2)C(=O)NC2(C(=O)N[C@@H](CCCCNC(C)=O)C(=O)N[C@@H](CC(N)=O)C(=O)N[C@@H](Cc3cccnc3)C(=O)N(C)CC(N)=O)CCOCC2)NC1=O
B4: Peptide No. 160 (peptide)
peptide: Ac-[Pen]NT[Trp(5-Ca)]K(Ac)[Pen][AEF][2Nal][Thp]EN[3Pal][Sar]-NH2
modifications: disulfide 1-6; reading uncertain; also: printed as Ac-[Pen]-N-T-[W(5-Ca)]-[Lys(Ac)]-[Pen]-Phe[4-(2-aminoethoxy)]-[2-Nal]-[THP]-E-N-[3Pal]-[Sarc]-NH2; Pen-Pen disulfide
B5: Peptide No. 85 (peptide)
peptide: Ac-[Pen]NT[Trp(7-Me)][Cit][Pen][AEF][2Nal][αMeL]K(Ac)N[dH]-NH2
modifications: disulfide 1-6
SMILES: CC(=O)NCCCC[C@H](NC(=O)[C@](C)(CC(C)C)NC(=O)[C@H](Cc1ccc2ccccc2c1)NC(=O)[C@H](Cc1ccc(OCCN)cc1)NC(=O)[C@H]1NC(=O)[C@H](CCCNC(N)=O)NC(=O)[C@H](Cc2c[nH]c3c(C)cccc23)NC(=O)[C@H]([C@@H](C)O)NC(=O)[C@H](CC(N)=O)NC(=O)[C@@H](NC(C)=O)C(C)(C)SSC1(C)C)C(=O)N[C@@H](CC(N)=O)C(=O)N[C@H](Cc1c[nH]cn1)C(N)=O
B6: Peptide No. 235 (peptide)
peptide: Ac-[dR][Pen]NT[Trp(7-Me)]K(Ac)[Pen][AEF][2Nal][Ac5c]EN[3Pal][Sar]-NH2
modifications: disulfide 2-7
SMILES: CC(=O)NCCCC[C@@H]1NC(=O)[C@H](Cc2c[nH]c3c(C)cccc23)NC(=O)[C@H]([C@@H](C)O)NC(=O)[C@H](CC(N)=O)NC(=O)[C@@H](NC(=O)[C@@H](CCCNC(=N)N)NC(C)=O)C(C)(C)SSC(C)(C)[C@@H](C(=O)N[C@@H](Cc2ccc(OCCN)cc2)C(=O)N[C@@H](Cc2ccc3ccccc3c2)C(=O)NC2(C(=O)N[C@@H](CCC(=O)O)C(=O)N[C@@H](CC(N)=O)C(=O)N[C@@H](Cc3cccnc3)C(=O)N(C)CC(N)=O)CCCC2)NC1=O

Bridge positions count the residues as written; N and C are the ends. Square brackets hold non-standard residues; d marks the D form. Trp(7-Ph) = N[C@@H](Cc1c[nH]c2c(-c3ccccc3)cccc12)C(=O)O; Trp(5-CN) = N#Cc1ccc2[nH]cc(C[C@H](N)C(=O)O)c2c1; Trp(7-Me) = Cc1cccc2c(C[C@H](N)C(=O)O)c[nH]c12; 2Nal = N[C@@H](Cc1ccc2ccccc2c1)C(=O)O; AEF = NCCOc1ccc(C[C@H](N)C(=O)O)cc1; dNMeY = CN[C@H](Cc1ccc(O)cc1)C(=O)O; 3Pal = N[C@@H](Cc1cccnc1)C(=O)O; Cit = NC(=O)NCCC[C@H](N)C(=O)O; αMeL = CC(C)C[C@](C)(N)C(=O)O; Pen = CC(C)(S)[C@H](N)C(=O)O; Trp(5-Ca) = not defined here; αMeK = C[C@](N)(CCCCN)C(=O)O; Ac5c = NC1(C(=O)O)CCCC1; Thp = NC1(C(=O)O)CCOCC1; Abu = CC[C@H](N)C(=O)O; Sar = CNCC(=O)O Where only a bound is given, the exact number is not on record here.

One assay has as its target T1, interleukin-23 receptor (IL-23R) (human, UniProt Q5VWK5 24-629).
T1 sequence (looked up): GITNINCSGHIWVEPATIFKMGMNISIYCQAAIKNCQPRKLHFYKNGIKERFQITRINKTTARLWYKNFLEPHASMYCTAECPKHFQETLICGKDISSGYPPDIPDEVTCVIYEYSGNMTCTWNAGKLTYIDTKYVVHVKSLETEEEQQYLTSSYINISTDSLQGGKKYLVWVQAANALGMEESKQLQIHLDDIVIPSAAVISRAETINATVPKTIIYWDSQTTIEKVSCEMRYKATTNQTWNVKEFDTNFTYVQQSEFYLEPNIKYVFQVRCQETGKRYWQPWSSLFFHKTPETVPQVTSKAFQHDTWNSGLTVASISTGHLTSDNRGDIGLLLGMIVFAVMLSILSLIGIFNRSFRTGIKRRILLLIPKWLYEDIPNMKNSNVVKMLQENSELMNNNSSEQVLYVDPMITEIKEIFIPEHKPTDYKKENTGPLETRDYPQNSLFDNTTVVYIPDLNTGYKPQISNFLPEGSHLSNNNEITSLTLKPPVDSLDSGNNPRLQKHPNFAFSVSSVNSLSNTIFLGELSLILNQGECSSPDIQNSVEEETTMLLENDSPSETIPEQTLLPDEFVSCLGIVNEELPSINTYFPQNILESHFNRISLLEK
Put plainly: cell-based or functional assay.
Turning to B1, the “IC50, NK Cell Assay (IFNγ in supernatant of human NK cells stimulated with IL-23 and IL-18)” value was found to be 40 pM.

For another assay, the target named is T2, human IL-23R (human, UniProt Q5VWK5 24-629).
T2 sequence (looked up): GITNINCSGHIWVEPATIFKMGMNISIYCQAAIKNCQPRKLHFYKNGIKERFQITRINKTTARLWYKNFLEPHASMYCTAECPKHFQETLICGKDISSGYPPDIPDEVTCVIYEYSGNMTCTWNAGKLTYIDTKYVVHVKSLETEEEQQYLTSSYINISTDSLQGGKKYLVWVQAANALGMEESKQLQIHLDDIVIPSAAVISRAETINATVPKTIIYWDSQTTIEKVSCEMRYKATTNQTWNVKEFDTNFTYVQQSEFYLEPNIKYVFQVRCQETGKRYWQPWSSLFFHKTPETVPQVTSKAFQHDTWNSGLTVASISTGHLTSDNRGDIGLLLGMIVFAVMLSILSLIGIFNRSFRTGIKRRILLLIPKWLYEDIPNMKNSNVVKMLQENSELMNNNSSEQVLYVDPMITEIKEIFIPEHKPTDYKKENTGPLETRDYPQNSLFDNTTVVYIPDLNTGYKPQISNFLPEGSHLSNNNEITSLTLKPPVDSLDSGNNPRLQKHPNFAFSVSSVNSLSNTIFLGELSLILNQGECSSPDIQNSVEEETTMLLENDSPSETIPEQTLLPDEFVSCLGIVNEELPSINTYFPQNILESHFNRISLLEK
Put plainly: cell-based or functional assay.
On to B2, for which the “PBMC pSTAT3 IC50” value was 1 nM. With B3, the “pStat3 HTRF IC50” value amounted to 0.02 nM.

As to Ac-[Abu]QT[Trp(7-Ph)]K(Ac)C[AEF][2Nal][αMeK]K(Ac)N[dK][Sar]-NH2 (thioether 1-6) [Peptide No. 18], the “PBMC pSTAT3 IC50” value was 1.1 nM. For the molecule Ac-[Pen]NT[Trp(5-Ph)]K(Ac)[Pen][AEF][2Nal][Thp]EN[3Pal][Sar]-NH2 (disulfide 1-6 (inferred)) [Peptide No. 150], the “pStat3 HTRF IC50” value was over 10 nM. On to Ac-[Pen]NT[Trp(7-(3-carboxamidophenyl))]K(Ac)[Pen][AEF][2Nal][Thp]EN[3Pal][Sar]-NH2 (disulfide 1-6 (inferred)) [Peptide No. 142], for which the “pStat3 HTRF IC50” value came to 0.09 nM.

In the case of Ac-[Pen]NT[Trp(5-CN)]K(Ac)[Pen][AEF][2Nal][Thp]EN[3Pal][Sar]-NH2 (disulfide 1-6 (inferred)) [Peptide No. 154], the “pStat3 HTRF IC50” value is over 10 nM. Take B4: the “pStat3 HTRF IC50” value was over 10 nM. Turning to B5, the “PBMC pSTAT3 IC50” value was 3 nM.

With Ac-[dR][Pen]NT[Trp(7-Me)]K(Ac)[Pen][AEF][2Nal][Thp]ENN[dNMeY]-NH2 (disulfide 2-7) [Peptide No. 88], the “PBMC pSTAT3 IC50” value is over 2000 nM. Turning to Ac-[Abu]QT[Trp(7-Me)]K(Ac)C[AEF][2Nal][αMeK]K(Ac)N[dK][Sar]-NH2 (thioether 1-6) [Peptide No. 17], the “PBMC pSTAT3 IC50” value was 0.791 nM.

A further assay has as its target T2, human IL-23R. Put plainly: cell-based or functional assay. The source holds these as a separate data set.
Consider B6, for which the “PBMC pSTAT3 IC50” value was found to be 0.01 nM.

For the origin of these results see patent US20210261622A1 (Janssen / Centocor, published 2021).
